T1: CtaD with Strep-tag, subunit I homologue of complex IV (Corynebacterium glutamicum, UniProt Q79VD7 1-584)
T1 sequence (looked up): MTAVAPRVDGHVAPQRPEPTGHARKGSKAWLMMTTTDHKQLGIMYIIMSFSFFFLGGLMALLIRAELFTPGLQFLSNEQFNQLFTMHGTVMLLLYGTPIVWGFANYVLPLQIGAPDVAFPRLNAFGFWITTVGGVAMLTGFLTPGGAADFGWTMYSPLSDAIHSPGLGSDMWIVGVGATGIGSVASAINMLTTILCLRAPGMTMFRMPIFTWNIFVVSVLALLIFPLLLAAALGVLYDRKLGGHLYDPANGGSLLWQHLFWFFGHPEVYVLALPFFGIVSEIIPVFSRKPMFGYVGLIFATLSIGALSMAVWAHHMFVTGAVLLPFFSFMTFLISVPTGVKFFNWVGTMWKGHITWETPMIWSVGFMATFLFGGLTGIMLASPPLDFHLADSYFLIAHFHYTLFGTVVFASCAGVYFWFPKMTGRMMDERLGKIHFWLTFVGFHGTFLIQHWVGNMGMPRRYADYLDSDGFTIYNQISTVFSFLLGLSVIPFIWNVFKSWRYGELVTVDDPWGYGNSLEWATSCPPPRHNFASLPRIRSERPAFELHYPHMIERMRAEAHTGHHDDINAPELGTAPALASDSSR

B1: AscA (P20, PRSAF1) (natural protein, Corynebacterium glutamicum, UniProt Q8NP09 1-147, looked up)
chain: MAGSSHTIEPEIYRGVSTLDEPSAAWGWHGLKRNTIQLAGWISVLFMLGYNFGNHKGHVETIWLLVITALLVIGLLIHLFEPKLSQVRTITSRNKPVGHVEPDWTYDQATLTGTWGNLTDSQLRSVNIEPSRVAHLRAADSAKELDN
B2: QcrB, cytochrome b subunit of complex III (natural protein, Corynebacterium glutamicum, UniProt Q79VE9 1-539, looked up)
chain: MSLATVGNNLDSRYTMASGIRRQINKVFPTHWSFMLGEIALYSFIVLLLTGVYLTLFFDPSITKVIYDGGYLPLNGVEMSRAYATALDISFEVRGGLFIRQMHHWAALLFVVSMLVHMLRIFFTGAFRRPREANWIIGVVLIILGMAEGFMGYSLPDDLLSGVGLRIMSAIIVGLPIIGTWMHWLIFGGDFPSDLMLDRFYIAHVLIIPAILLGLIAAHLALVWYQKHTQFPGAGRTENNVIGIRIMPLFAVKAVAFGLIVFGFLALLAGVTTINAIWNLGPYNPSQVSAGSQPDVYMLWTDGAARVMPAWELYLGNYTIPAVFWVAVMLGILVVLLVTYPFIERKFTGDDAHHNLLQRPRDVPVRTSLGVMALVFYILLTVSGGNDVYAMQFHVSLNAMTWIGRIGLIVGPAIAYFITYRLCIGLQRSDREVLEHGIETGIIKQMPNGAFIEVHQPLGPVDDHGHPIPLPYAGAAVPKQMNQLGYAEVETRGGFFGPDPEDIRAKAKEIEHANHIEEANTLRALNEANIERDKNEGKN
B3: Complex III (cyt. bc1 complex) protomer, QcrA-QcrB-QcrC (complex, Corynebacterium glutamicum)
chain 1: MSNNNDKQYTTQELNAMSNEDLARLGTELDDVTIAYRKERFPIANDPAEKRAARAVTFWLVLGIIGGLGFLATYIFWPWEYKAHGDEGLLAYTLYTPMLGITSGLCILSLGFAVVLYVKKFIPEEIAVQRRHDGPSEEVDRRTIVALLNDSWQTSTLGRRKLIMGLAGGGAVLAGLTIIAPMGGMIKNPWNPKEGPMDVQGDGTLWTSGWTLVENDVKVYLGRDTAAIAESHTDATGEHWSTTGVSRLVRMRPEDLAAASMETVFPLPAEMVNDGAEYDPAKDVYEHQMHSVHGPRNAVMLIRLRTADAEKVIEREGQESFHYGDYYAYSKICTHIGCPTSLYEAQTNRILCPCHQSQFDALHYGKPVFGPAARALPQLPITVDEEGYLIAAGNFIEPLGPAFWERKS
chain 2: B2 chain
chain 3: MAKPSAKKVKNRRKVRRTVAGALALTIGLSGAGILATAITPDAQVATAQRDDQALISEGKDLYDVACITCHGVNLQGVEDRGPSLVGVGEGAVYFQVHSGRMPILRNEAQAERKAPRYTEAQTLAIAAYVAANGGGPGLVYNEDGTLAMEELRGENYDGQITSADVARGGDLFRLNCASCHNFTGRGGALSSGKYAPNLDAANEQEIYQAMLTGPQNMPKFSDRQLSADEKKDIIAFIKSTKETPSPGGYSLGSLGPVAEGLFMWVFGILVLVAAAMWIGSRS

Legend:
[1] = molecular target: T1, CtaD with Strep-tag, subunit I …; assay: cryo-EM structure
[2] = molecular target: B2; assay: cryo-EM structure
[3] = molecular target: T1, CtaD with Strep-tag, subunit I …; assay: affinity purification with mass spectrometry
cryo-EM structure = molecular target: the molecule itself; assay: cryo-EM structure

B1: binds [1]; binds [2].

B2: binds [3].

For B3, the “stoichiometry N” value (cryo-EM structure) was 2.

Source: article doi:10.1101/2021.06.16.448340 (bioRxiv, 2021)
